Test results taken from patent US20050244862A1.
Blank lines part the entries; values can stand above or below the substance they belong to.

What was measured:
Assay in all cases: cell-based or functional assay
Insulin receptor = biological target: Insulin receptor
Gq-i5 chimeric G-protein = biological target: Gq-i5 chimeric G-protein
Gq-o5 chimeric G-protein = biological target: Gq-o5 chimeric G-protein
NK1 tachykinin receptor = NK1 tachykinin receptor (UniProt P25103)
NK3 tachykinin receptor = biological target: T1, NK3 tachykinin receptor (UniProt P29371)
T1 sequence (looked up): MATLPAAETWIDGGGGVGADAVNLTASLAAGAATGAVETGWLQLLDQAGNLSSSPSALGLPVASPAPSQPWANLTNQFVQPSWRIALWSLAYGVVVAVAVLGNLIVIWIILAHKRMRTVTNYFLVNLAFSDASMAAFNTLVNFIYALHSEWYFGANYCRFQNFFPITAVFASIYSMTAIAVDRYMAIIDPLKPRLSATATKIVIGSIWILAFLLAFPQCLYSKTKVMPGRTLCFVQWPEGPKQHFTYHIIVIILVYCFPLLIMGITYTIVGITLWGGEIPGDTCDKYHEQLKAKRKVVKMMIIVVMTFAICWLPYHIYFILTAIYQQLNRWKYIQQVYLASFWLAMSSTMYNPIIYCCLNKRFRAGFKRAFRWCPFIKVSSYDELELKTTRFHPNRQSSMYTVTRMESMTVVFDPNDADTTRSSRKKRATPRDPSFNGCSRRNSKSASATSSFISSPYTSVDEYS

NK2 tachykinin receptor = NK2 tachykinin receptor (UniProt P21452)
NK2 tachykinin receptor, sequence (P21452 whole entry): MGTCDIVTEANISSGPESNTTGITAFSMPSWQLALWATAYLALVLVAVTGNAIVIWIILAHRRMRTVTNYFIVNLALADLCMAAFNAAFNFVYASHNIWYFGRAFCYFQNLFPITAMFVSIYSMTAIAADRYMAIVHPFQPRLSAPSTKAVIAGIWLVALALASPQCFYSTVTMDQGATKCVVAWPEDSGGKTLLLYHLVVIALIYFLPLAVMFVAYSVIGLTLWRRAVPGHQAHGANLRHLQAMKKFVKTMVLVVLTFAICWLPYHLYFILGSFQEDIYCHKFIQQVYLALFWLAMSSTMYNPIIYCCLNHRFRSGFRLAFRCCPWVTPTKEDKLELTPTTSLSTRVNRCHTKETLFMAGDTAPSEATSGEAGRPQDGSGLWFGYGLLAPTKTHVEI

m4 muscarinic receptor, sequence (P08173 whole entry): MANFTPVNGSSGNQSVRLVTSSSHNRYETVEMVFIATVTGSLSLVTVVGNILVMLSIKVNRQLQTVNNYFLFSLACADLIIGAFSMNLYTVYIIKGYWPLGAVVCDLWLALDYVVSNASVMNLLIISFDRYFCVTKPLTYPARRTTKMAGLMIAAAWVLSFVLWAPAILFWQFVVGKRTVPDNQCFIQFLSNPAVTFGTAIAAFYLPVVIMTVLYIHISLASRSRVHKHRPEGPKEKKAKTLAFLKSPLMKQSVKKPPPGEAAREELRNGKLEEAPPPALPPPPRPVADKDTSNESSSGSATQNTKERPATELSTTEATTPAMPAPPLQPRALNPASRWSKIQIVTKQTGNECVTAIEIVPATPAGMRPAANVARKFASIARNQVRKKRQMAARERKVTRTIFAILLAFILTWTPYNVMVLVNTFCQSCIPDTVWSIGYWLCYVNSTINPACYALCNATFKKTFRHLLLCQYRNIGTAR
NK1 tachykinin receptor, sequence (P25103 whole entry): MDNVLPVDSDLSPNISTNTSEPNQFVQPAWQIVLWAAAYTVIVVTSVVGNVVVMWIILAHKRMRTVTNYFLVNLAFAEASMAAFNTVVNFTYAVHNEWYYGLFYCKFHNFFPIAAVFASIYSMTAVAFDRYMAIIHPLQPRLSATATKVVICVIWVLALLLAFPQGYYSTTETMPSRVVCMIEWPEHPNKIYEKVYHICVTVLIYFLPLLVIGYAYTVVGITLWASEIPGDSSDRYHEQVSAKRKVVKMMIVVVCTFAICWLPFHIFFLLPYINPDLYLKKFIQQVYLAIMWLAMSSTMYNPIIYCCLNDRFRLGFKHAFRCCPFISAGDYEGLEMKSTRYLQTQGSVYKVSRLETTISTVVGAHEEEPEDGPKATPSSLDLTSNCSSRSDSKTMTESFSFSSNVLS

EC50, amplification assay (β-galactosidase), Single Receptor Format (Insulin receptor): 0.08 nM
Substance: Insulin (ligand)

ED50 of carbachol for the β-galactosidase response of cells co-expressing m4 and Gq-i5 (Gq-i5 chimeric G-protein): 37 nM | ED50 of carbachol for the β-galactosidase response of cells co-expressing m4 and Gq-o5 (Gq-o5 chimeric G-protein): 32 nM
Substance: m4 muscarinic receptor (from UniProt P08173 1-479)

EC50, amplification assay (β-galactosidase), Single Receptor Format (NK1 tachykinin receptor): 14 nM | EC50, amplification assay (β-galactosidase), Single Receptor Format (NK3 tachykinin receptor): 11 nM
Substance: neurokinin A (from UniProt P20366 98-107) (peptide)

EC50, amplification assay (β-galactosidase), Single Receptor Format (NK2 tachykinin receptor): 65 nM | EC50, amplification assay (β-galactosidase), Single Receptor Format (NK3 tachykinin receptor): 164 nM
Substance: substance P (from UniProt P20366 58-68) (peptide)
